Source: patent US11015206B2, “Compositions and methods comprising sequences having hydroxyphenylpyruvate dioxygenase (HPPD) activity” (PIONEER HI-BRED INTERNATIONAL, INC., priority 2014, dated 2021)
Blank lines part the entries; values can stand above or below the molecule they belong to.

Assays:
Format in all cases: biochemical, Z. mays
[1] = test system: 4-hydroxyphenylpyruvate dioxygenase (HPPD); assay: Insensitivity parameter (ON × OFF) and trait fitness (ON × OFF × kcat/KM or × kcat); parameters: key to ON × OFF / Insensitivity, mesotrione, ON × OFF / Insensitivity, tembotrione, ON × OFF / Insensitivity, topramezone, ON × OFF / Insensitivity, sulcotrione, ON × OFF / Insensitivity, isoxaflutole (DKN), ON × OFF: insensitivity = ON rate ratio × OFF rate ratio (surrogate for KD)
Summary of the method: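 Trait fitness combines catalysis and insensitivity as kcat/KM × ON rate ratio × OFF rate ratio. The insensitivity parameter is the product of ON and OFF rate ratios, used in place of KD because the ON rate ratio is inverse.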

[2] = test system: 4-hydroxyphenylpyruvate dioxygenase (HPPD); assay: Estimate of kcat from initial rate at saturating hydroxyphenylpyruvate without inhibitor (ON rate ratio assay)
Summary of the method: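 kcat was estimated from the initial reaction rate with known enzyme level (60 or 120 nM HPPD). Hydroxyphenylpyruvate was at a saturating 100 μM, with no inhibitor present.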

[3] = test system: 4-hydroxyphenylpyruvate dioxygenase (HPPD); assay: HPPD activity coupled assay with HGD; substrate saturation kinetic parameters (kcat, KM)
Summary of the method: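 Coupled continuous assay: His-tagged HPPD (5 to 240 nM, E. coli-expressed, Ni-NTA-purified) with 50 nM P. aeruginosa HGD in 25 mM Hepes pH 7, 2 mM ascorbate, 10 μM FeSO4; maleylacetoacetate followed at 320 nm. KM and Vmax from Lineweaver-Burke fits over 3.33–100 μM HPP.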

[4] = test system: 4-hydroxyphenylpyruvate dioxygenase (HPPD); assay: OFF rate ratio: release of inhibitor from pre-formed enzyme-inhibitor complex
Summary of the method: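 Inhibitor release from pre-formed complex (enzyme 7.2 μM, inhibitor 8 μM, 1 h RT) tracked as accelerating HPPD activity at 320 nm over 12 min, coupled via 50 nM HGD with 100 μM HPP at pH 7. OFF rate ratio: steady-state velocity relative to uninhibited initial velocity.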

[5] = test system: 4-hydroxyphenylpyruvate dioxygenase (HPPD); assay: ON rate ratio: HPPD reaction rate with vs without inhibitor in the 70 to 90 second interval
Summary of the method: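 Indicator of inhibitor on-rate: reaction velocity in the 70 to 90 second window with 4 μM inhibitor divided by that without. Reactions contained 100 μM HPP and 60 or 120 nM HPPD; slower binding gives a larger ratio.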

[6] = Table 5, tembotrione, fold vs maize wild type HPPD
[7] = Table 7, tembotrione, combinatorial variants
[8] = substrate saturation kinetic analysis

Insensitivity parameter, ON × OFF ([1]; DKN (diketonitrile form of isoxaflutole)): 0.22
Insensitivity parameter, ON × OFF ([1]; Mesotrione, Table 6): 0.42
Insensitivity parameter, ON × OFF ([1]; Sulcotrione): 0.51
ON × OFF, fold vs wt [1, 6]: 19.7
ON × OFF (parameters with tembotrione) ([1]; Table 5, tembotrione, insensitivity parameter): 0.10
Insensitivity parameter, ON × OFF ([1]; Tembotrione): 0.17
Insensitivity parameter, ON × OFF ([1]; Topramezon): 0.23
OFF ratio (parameters with tembotrione) ([4]; Table 5, tembotrione): 0.13
ON ratio (parameters with tembotrione) ([5]; Table 5, tembotrione): 0.78
B1: 342V: single substitution 342V in SEQ ID NO:2 (protein)
chain: MGPTPTATAAGAAVAAASAAEQAAFRLVGHRNFVRFNPRSDRFQTLAFHHVELWCADAASAAGRFSFALGVPLAARSDLSTGNSAHASLLLRSGSLSLLFTAPYAHGADAATAALPSFSAAAARRFAADHGLAVRAVALRVADAEDAFRASVAAGARPAFGPVDLGRGFRLAEVELYGDVVLRYVSYPDGAAGEPFLPGFEGVASPGAADYGLSRFDHIVGNVPELAPAAAYMAGFTGFHEFAEFTTEDVGTTESGLNSMALANNSENVLLPLNEPVHGTKRRSQIQTFLDHHGGPGVQHIALASDDVLRTLREMRARSAMGGFEFLPPPLSDYYDGVRRCVGDVLTEAQINECQELGVMVDRDDQGVLLQIFTKPVGDRPTFFLEIIQRIGCMEKDEKGQEYQKGGCGGFGKGNFGQLFKSIEDYEKSLEAKQAAAAATAQGS
modifications: Zea mays variant form created by artificial means.
ON × OFF × kcat, Value ([1]; Table 5, tembotrione): 4.08
ON × OFF × kcat, Fold vs wt [1, 6]: 3.82
kcat ([2]; Table 5, single substitutions in Round 7 variant 9070 (SEQ ID NO:2), estimate from initial rate at saturating hydroxyphenylpyruvate without inhibitor): 0.677 s⁻¹
Km ([3]; Table 6): 2.59 µM
kcat ([3]; Table 6, single substitutions in SEQ ID NO:2): 0.903 s⁻¹

ON × OFF ([1]; Megatable 3, shuffled variants): 0.276
ON × OFF [1, 7]: 0.276
Insensitivity, mesotrione, ON × OFF ([1]; inhibitor mesotrione): 0.64
Insensitivity, mesotrione, Trait Fitness ([1]; inhibitor mesotrione): 8.7
Insensitivity, tembotrione, ON × OFF ([1]; inhibitor tembotrione): 0.28
Insensitivity, tembotrione, Trait fitness ([1]; inhibitor tembotrione): 3.74
OFF rate ratio [4, 7]: 0.395
Insensitivity, mesotrione, Rate ratio OFF ([4]; inhibitor mesotrione): 1.00
Insensitivity, tembotrione, Rate ratio OFF ([4]; inhibitor tembotrione): 0.39
ON rate ratio [5, 7]: 0.700
Insensitivity, mesotrione, Rate ratio ON ([5]; inhibitor mesotrione): 0.64
Insensitivity, tembotrione, Rate ratio ON ([5]; inhibitor tembotrione): 0.70
B2: P056028-F-05 (protein)
chain: MGPTPTATAAGAAVAAASAAEQAAFRLVGHRNFVRFNPRSDRFQTLAFHHVELWCADAASAAGRFSFALGVPLAARSDLSTGNSAHASLLLRSGSLSLLFTAPYAHGADAATAALPSFSAAAARRFAADHGLAVRAVALRVADAEDAFRASVAAGARPAFGPVDLGRGFRLAEVELYGDVVLRYVSYPDGGAGEPFLPGFEGVASPGAADYGLSRFDHIVGNVPELAPAAAYMAGFTGFHEFAEFTTEDVGTTESGLNSMALANNSENVLLPLNEPVHGTKRRSQIQTFLDHHGGPGVQHIALASDDVLRTLREMRARSAMGGFEFLPPPLSDYYDGVRRCAGDVLTEAQINECQELGVMVDRDDEGVLLQIFTKPVGDRPTFFLEIIQRIGCMEKDEKGQEYQKGGCGGFGKGNFGQLFKSIEDYEKSLEAKQAAAAATAQGS
modifications: Zea mays variant form created by artificial means.
ON × OFF × kcat ([1]; Megatable 3, shuffled variants): 7.57
ON × OFF × kcat [1, 7]: 7.57
kcat ([2]; Megatable 3, shuffled variants): 0.457 s⁻¹
kcat ([2]; Table 7, combinatorial variants): 0.457 s⁻¹
Km [3, 8]: 2.39 µM
kcat [3, 8]: 0.538 s⁻¹
